Experimental data taken from patent US20240269252A1, “COMPOSITIONS FOR INDUCING AN IMMUNE RESPONSE” (President and Fellows of Harvard College, priority 2017, published 2024).

Test: Biomolecule release quantification: incorporation efficiency and release kinetics of CpG ODN, GM-CSF and antigen from cryogel vaccines
Assay type: physicochemical
Settings: for encapsulation efficiency: encapsulated in vaccine cryogel by cryo-polymerization

Q: Which “burst release of the loaded amount” value (GM-CSF from vaccine cryogel, in vitro) does the source give for “granulocyte-macrophage colony-stimulating factor [GM-CSF]” here?
A: about 8%

Q: What about the encapsulation efficiency of the same substance?
A: 87%

Q: What about the GM-CSF released (over the first 5 days in vitro) of the same substance?
A: 85%

Q: With “5′-TCCATGACGTTCCTGACGTT-3′ [CpG-ODN, reference compound]” as the substance, how does the encapsulation efficiency read?
A: 48%

Q: What about the “CpG-ODN eluted from the hydrogel” value (within the first 2 days) of the same substance?
A: 50%
